In test [1] the target is ectodomain of glycoprotein B (ect-gB), Epstein-Barr virus (Epstein-Barr virus). The test is described as follows: native gel or EMSA. For orientation: Mobility shift assays separate free from complexed probe on a gel.
Test [2] addresses T1, ectodomain of glycoprotein B (ect-gB), Epstein-Barr virus (Epstein-Barr virus (HHV-4), strain M81 …).
T1 chain 1: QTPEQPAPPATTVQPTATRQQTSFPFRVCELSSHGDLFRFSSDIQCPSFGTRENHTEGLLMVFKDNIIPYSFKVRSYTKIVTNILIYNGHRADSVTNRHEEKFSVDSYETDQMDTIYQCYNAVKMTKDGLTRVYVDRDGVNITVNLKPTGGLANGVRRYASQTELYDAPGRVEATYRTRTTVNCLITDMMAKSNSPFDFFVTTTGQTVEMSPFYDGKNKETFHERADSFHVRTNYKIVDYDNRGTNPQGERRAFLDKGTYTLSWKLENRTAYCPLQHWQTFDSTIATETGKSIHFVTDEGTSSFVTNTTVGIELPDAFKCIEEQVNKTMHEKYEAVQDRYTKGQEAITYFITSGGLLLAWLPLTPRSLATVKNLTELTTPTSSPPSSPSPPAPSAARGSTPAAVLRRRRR
T1 chain 2: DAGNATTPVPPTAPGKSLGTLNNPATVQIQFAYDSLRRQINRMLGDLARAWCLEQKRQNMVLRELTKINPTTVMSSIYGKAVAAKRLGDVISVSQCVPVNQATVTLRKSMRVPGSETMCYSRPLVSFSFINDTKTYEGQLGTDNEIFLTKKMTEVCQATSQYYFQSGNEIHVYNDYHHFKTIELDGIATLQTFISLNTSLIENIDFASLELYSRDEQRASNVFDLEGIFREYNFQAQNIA

The target in test [3] is virion-encoded gB expressed on EBV-positive Akata cells (Epstein-Barr virus (HHV-4), strain …, UniProt P03188, strain). Put plainly: cell-based or functional assay.
For test [4], the target named is T1, ectodomain of glycoprotein B (ect-gB), …. Put plainly: SPR.

In the case of “ectodomain of glycoprotein B (ect-gB), Epstein-Barr virus (domain or fragment)”, in test [1], the stoichiometry N is 3.

B1: 1E12 (antibody, V domains shown)
VH: QSVKESGGRLVTPGTPLTLTCTVSGIDLSTYVMTWVRQAPGKGLECIGIIGYGGSTYYASWATGRFTISKTSTTVDLRMTSLTTEDTATYFCARGVSSNLYRGMNLWGQGTLVTVSS
VL: ALVMTQTPSPVSAAVGGTVSISCQSSPSVYSNYLSWYQQKPGQPPKLLIYETSKLESGVPSRFSGSGSGTQFTLTISGVQCDDAATYYCAGGYSGISDTFAFGGGTKVDIK
Turning to B1, the binding result in test [2] is given as “binds”.

B2: 3A3, rabbit anti-EBV gB neutralizing monoclonal antibody (antibody, V domains shown)
VH: QSVKESGGRLVTPGTPLTLTCTVSGFSLSSYAMSWVRQAPGKGLEYIGVIYASGSTYYASWAKGRFTISRTATTVDLKITSPTTEDTATYFCGRGVSTNMWGPGTLVTVSS
VL: DLVMTQTPSSVSAAVGGTVTIKCQASQSLGGGLAWYQQKPGQRPKLLIYSASTLESGVPSRFRGSGSGTEFTLTISDLECADAATYYCQSAYGPTSNGLFNAFGGGTKVVIK
For B2, in test [3], the “IC50 of neutralization of Akata-EBV infection of HNE1 epithelial cells” value came out at 0.08 µg/mL and the “IC50 of neutralization of CNE2-EBV infection of Akata B cells” value stood at 2.97 µg/mL.

B3: antigen binding fragment of 3A3 (3A3Fab) (Fab, V domains shown)
VH: QSVKESGGRLVTPGTPLTLTCTVSGFSLSSYAMSWVRQAPGKGLEYIGVIYASGSTYYASWAKGRFTISRTATTVDLKITSPTTEDTATYFCGRGVSTNMWGPGTLVTVSS
VL: DLVMTQTPSSVSAAVGGTVTIKCQASQSLGGGLAWYQQKPGQRPKLLIYSASTLESGVPSRFRGSGSGTEFTLTISDLECADAATYYCQSAYGPTSNGLFNAFGGGTKVVIK
For B3, in test [4], the Kd is approximately 3.49 nM.

B4: 3A5, rabbit anti-EBV gB neutralizing monoclonal antibody (antibody, V domains shown)
VH: QSVKESGGRLVTPGTPLTLTCTVSGFSLSSYEMGWVRQAPGEGLEWIGTISTGGSSYYASWAKGRFTISRTSTTVDLKMTSLTTADTATYFCARGYGGYGIGAGYFNIWGPGTLVTVSS
VL: ALVMTQTPSSVSEPVGGTVTIKCQASQSISSYLAWYQRKPGQRPKLLIYGTSTLASGVPSRFIGSGSGTDYTLTISDLECDDAATYYCQQGFSTSNVYNSFGGGTKVDIK
As to B4, in test [3], the “IC50 of neutralization of Akata-EBV infection of HNE1 epithelial cells” value is 0.31 µg/mL and the “IC50 of neutralization of CNE2-EBV infection of Akata B cells” value worked out at 4.9 µg/mL.

B5: antigen binding fragment of 3A5 (3A5Fab) (Fab, V domains shown)
VH: QSVKESGGRLVTPGTPLTLTCTVSGFSLSSYEMGWVRQAPGEGLEWIGTISTGGSSYYASWAKGRFTISRTSTTVDLKMTSLTTADTATYFCARGYGGYGIGAGYFNIWGPGTLVTVSS
VL: ALVMTQTPSSVSEPVGGTVTIKCQASQSISSYLAWYQRKPGQRPKLLIYGTSTLASGVPSRFIGSGSGTDYTLTISDLECDDAATYYCQQGFSTSNVYNSFGGGTKVDIK
Take B5: in test [4], the dissociation constant Kd is approximately 3.93 nM.

As a reminder, the stoichiometry N is a count of units in the complex or per binding partner. Broadly, the Kd is the concentration at which binding is half-saturated. A lower Kd goes with tighter binding.

The values are drawn from PMC9371650 (Proceedings of the National Academy of Sciences of the …, 2022).
